In paper PMC3622683, “Purification, Gene Cloning, and Biochemical Characterization of a β-Glucosidase Capable of Hydrolyzing Sesaminol Triglucoside from Paenibacillus sp. KB0549” (PLoS ONE, 2013):

How the values were obtained:
Settings in all cases: pH 7.0, 37°C, potassium phosphate
[1] = substrate: O=[N+]([O-])c1ccc(O[C@@H]2OC[C@@H](O)[C@H](O)[C@H]2O)cc1; experiment: purified protein; type: biochemical, Paenibacillus relictisesami
[2] = substrate: O=[N+]([O-])c1ccc(O[C@@H]2O[C@H](CO)[C@@H](O[C@@H]3O[C@H](CO)[C@@H](O)[C@H](O)[C@H]3O)[C@H](O)[C@H]2O)cc1; experiment: purified protein; type: biochemical, Paenibacillus relictisesami
[3] = substrate: O=[N+]([O-])c1ccc(O[C@@H]2O[C@H](CO)[C@@H](O)[C@H](O)[C@H]2O)cc1; experiment: purified protein
[4] = substrate: O=[N+]([O-])c1ccc(O[C@@H]2O[C@H](CO)[C@H](O)[C@H](O)[C@H]2O)cc1; experiment: purified protein
[5] = substrate: OC[C@H]1O[C@@H](OC[C@H]2O[C@@H](Oc3cc4c(cc3[C@H]3OC[C@H]5[C@@H]3CO[C@@H]5c3ccc5c(c3)OCO5)OCO4)[C@H](O[C@@H]3O[C@H](CO)[C@@H](O)[C@H](O)[C@H]3O)[C@@H](O)[C@@H]2O)[C@H](O)[C@@H](O)[C@@H]1O; experiment: HPLC of STG hydrolysis, initial velocities; type: biochemical, Paenibacillus relictisesami
Protocol: HPLC of STG hydrolysis, initial velocities on rPSTG (recombinant PSTG, STG-hydrolyzing β-glucosidase) | k cat and K m values of rPSTG for hydrolysis of STG were determined

B1: rPSTG (recombinant PSTG, STG-hydrolyzing β-glucosidase) (Paenibacillus relictisesami) (protein)
chain: MSERRDLKALISQMTLEEKASLCTGRDTWHTQPIERLGIPSVMMTDGPHGLRKQKAASDHLGLFDSVPSTCFPSAVGVASSWNRDLIERMGQALGKECQAENVAVLLGPGANIKRSPLCGRNFEYFSEDPYLSSEMAAHHIMGVQSQGVGTSLKHFAANNQEYRRMTSDSVVNERTLREIYLTSFEGAVKKARPWTVMCSYNKVNGEYAAENERLLTGILKQEWGHEGFVVSDWGAVNDRVKSLAAGLELEMPHEGAGTKQIIEAVESGQLAEEKLDLAVERLLTVIFRSVDQHKEGAVYDPEAHHKLAREIAAESMVLLKNEDRILPLKREGTIAVIGELAKVPRYQGSGSSQIKPTRLDDIVFELAASAGEHARVTYTQGYDLKSDDINAVLTEEALQAAKEASVAVLFAGLPKRYESEGFDRKHMRMPDNQIALIEAVAAVQPNLVVVLCNGAPIEMPWLPQAKAVLEAYLGGQALGGAIADLLFGDANPSGKLAETFPVQLSDNPSFLNFPGEGDRVEYREGLFVGYRYYDKKQLRPLFPFGHGLSYTTFAYSNLSVDKKEILDTETLKVCVNVKNTGERAGKEIVQLYVRDVESSVIRPLKELKGFDKVFLAPGEEKTLTFELGKRSFAYYDPSIKDWMVETGAFEILIGRSSQDIVLAETVMVRSTVSRKIVYHRNSTVADLMLTEKGAAFAQKLRGMIPFGETVGEEYAEMLEAFKESVPLRGLISFSAGRFTEEDLSKLLEYLNG
notes: full-length 753 aa, 83,298 Da, no signal peptide; expressed from pDEST17 in E. coli BL21-AI, HisTrap purified (tag cleavage not mentioned); likely tetramer, 310 kDa; GH3
B1 showed a Km [1] of 35700 ± 12200 µM, a kcat [1] of 69 s⁻¹ and a kcat/Km [1] of 1930 M⁻¹ s⁻¹. The Km [2] was 230 ± 40 µM, the kcat [2] was 0.47 ± 0.03 s⁻¹ and the kcat/Km [2] was 2040 M⁻¹ s⁻¹. The Km [3] was 100 ± 10 µM, the kcat [3] was 44.3 s⁻¹ and the kcat/Km [3] was 426000 M⁻¹ s⁻¹. It also gave a Km [4] of 29000 ± 7000 µM, a kcat [4] of 2.06 s⁻¹ and a kcat/Km [4] of 71 M⁻¹ s⁻¹. For the same protein, the Km [5] was 1400 ± 400 µM and the kcat [5] was 9.3 ± 0.8 s⁻¹.
